Results on one substance are retold here after paper PMC3532415.

pKd: −log10 of the molar value.

The target in assay [1] is histone H3 1–15 K9me3 peptide (UniProt P68431). Kind of assay: fluorescence polarisation; fluorescence-labelled peptide constant at 40 nM, SUV39H1 (42–100 or 44–106) titrated from low to high micromolar; 20 mM Tris-HCl pH 8.5 or 7.5, 150 mM NaCl, 1 mM DTT, 0.01% Tween-X-100; 10 µL in 384-well plates; fit to a hyperbolic function. In general terms: In fluorescence polarisation assays a small probe gives low polarisation when free and higher when bound to something large.

The target in assay [2] is histone H3 1–15 K9me2 peptide (UniProt P68431). Described as above.

The pKd is the Kd on a negative log10 scale, so that one unit is a factor of ten. High values mean a small Kd, low ones a large Kd. As for “human SUV39H1 chromodomain (aa 42–100), complete chromodomain (from UniProt O43463 42-100) (domain or fragment)”, the negative logarithm of the Kd (pKd) in assay [1] is 4.70; in assay [2] it was 4.54.
